Values quoted from earlier work as cited in US6191103A, “Methods for enhancing thrombolysis in a mammal” (priority 1997, dated 2001).

Conditions: in vivo

tPA: tissue-type plasminogen activator, fibrinolytic agent
plasma half-life: around 5 minutes
